Laboratory results taken from patent US20250339531A1, “DUX4 POLYPEPTIDES AND NUCLEIC ACIDS FOR TREATING INFLAMMATORY AND AUTOIMMUNE CONDITIONS” (Fred Hutchinson Cancer Center, priority 2021, published 2025).

System: proteins that co-immunoprecipitated with DUX4-CTD constructs expressed in MB135 myoblasts
Assay: LC-MS of proteins co-immunoprecipitated with DUX4-CTD (Table 1) and western validation
Type: binding, human
Parameters: key to 4. mL1dL2 + Dox + IFNG / 4. + IFNG mix / 4. longCTD + Dox + IFNG / 3. + IFNg + Dox longCTD / 3. + Dox longCTD / 3. + IFNG longCTD: peptide-spectrum matches (PSMs) per protein
Settings: for 4. longCTD + Dox + IFNG: LC-MS counts of the listed protein co-immunoprecipitated with DUX4-CTD bait longCTD, experiment 4, Dox + IFNG; for 3. + IFNg + Dox longCTD: experiment 3, IFNg + Dox; for SUM of PSMS: sum over all samples; for 3. + Dox longCTD: experiment 3, Dox only
In short: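 Two independent experiments compared uninduced, doxycycline and doxycycline+IFNG MB135iDUX4-CTD (plus MB135iDUX4mL1dL2) myoblasts. Anti-FLAG pulldowns (3 h, 4 °C) were eluted in LDS buffer for western validation or with FLAG peptide for trypsin digestion and Orbitrap LC-MS; hits needed ≥2 PSMs in both experiments, ranked by total PSMs.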

Row | Molecule | 4. longCTD + Dox + IFNG | 3. + IFNg + Dox longCTD (bait longCTD) | SUM of PSMS | 3. + Dox longCTD (bait longCTD) | 3. + IFNG longCTD (bait longCTD, experiment 3, IFNG only, no doxycycline (bait at background level))
1 | P17655 (protein, UniProt P17655 1-700, looked up, full-length) MAGIAAKLAKDREAAEGLGSHDRAIKYLNQDYEALRNECLEAGTLFQDPSFPAIPSALGFKELGPYSSKTRGIEWKRPTEICADPQFIIGGATRTDICQGALGDCWLLAAIASLTLNEEILARVVPLNQSFQENYAGIFHFQFWQYGEWVEVVVDDRLPTKDGELLFVHSAEGSEFWSALLEKAYAKINGCYEALSGGATTEGFEDFTGGIAEWYELKKPPPNLFKIIQKALQKGSLLGCSIDITSAADSEAITFQKLVKGHAYSVTGAEEVESNGSLQKLIRIRNPWGEVEWTGRWNDNCPSWNTIDPEERERLTRRHEDGEFWMSFSDFLRHYSRLEICNLTPDTLTSDTYKKWKLTKMDGNWRRGSTAGGCRNYPNTFWMNPQYLIKLEEEDEDEEDGESGCTFLVGLIQKHRRRQRKMGEDMHTIGFGIYEVPEELSGQTNIHLSKNFFLTNRARERSDTFINLREVLNRFKLPPGEYILVPSTFEPNKDGDFCIRVFSEKKADYQAVDDEIEANLEEFDISEDDIDDGFRRLFAQLAGEDAEISAFELQTILRRVLAKRQDIKSDGFSIETCKIMVDMLDSDGSGKLGLKEFYILWTKIQKYQKIYREIDVDRSGTMNSYEMRKALEEAGFKMPCQLHQVIVARFADDQLIIDFDNFVRCLVRLETLFKIFKQLDPENTGTIELDLISWLCFSVL | 3 | 1 | 4 | – | –
2 | P51784 (protein, UniProt P51784 1-963, looked up, full-length) MAVAPRLFGGLCFRFRDQNPEVAVEGRLPISHSCVGCRRERTAMATVAANPAAAAAAVAAAAAVTEDREPQHEELPGLDSQWRQIENGESGRERPLRAGESWFLVEKHWYKQWEAYVQGGDQDSSTFPGCINNATLFQDEINWRLKEGLVEGEDYVLLPAAAWHYLVSWYGLEHGQPPIERKVIELPNIQKVEVYPVELLLVRHNDLGKSHTVQFSHTDSIGLVLRTARERFLVEPQEDTRLWAKNSEGSLDRLYDTHITVLDAALETGQLIIMETRKKDGTWPSAQLHVMNNNMSEEDEDFKGQPGICGLTNLGNTCFMNSALQCLSNVPQLTEYFLNNCYLEELNFRNPLGMKGEIAEAYADLVKQAWSGHHRSIVPHVFKNKVGHFASQFLGYQQHDSQELLSFLLDGLHEDLNRVKKKEYVELCDAAGRPDQEVAQEAWQNHKRRNDSVIVDTFHGLFKSTLVCPDCGNVSVTFDPFCYLSVPLPISHKRVLEVFFIPMDPRRKPEQHRLVVPKKGKISDLCVALSKHTGISPERMMVADVFSHRFYKLYQLEEPLSSILDRDDIFVYEVSGRIEAIEGSREDIVVPVYLRERTPARDYNNSYYGLMLFGHPLLVSVPRDRFTWEGLYNVLMYRLSRYVTKPNSDDEDDGDEKEDDEEDKDDVPGPSTGGSLRDPEPEQAGPSSGVTNRCPFLLDNCLGTSQWPPRRRRKQLFTLQTVNSNGTSDRTTSPEEVHAQPYIAIDWEPEMKKRYYDEVEAEGYVKHDCVGYVMKKAPVRLQECIELFTTVETLEKENPWYCPSCKQHQLATKKLDLWMLPEILIIHLKRFSYTKFSREKLDTLVEFPIRDLDFSEFVIQPQNESNPELYKYDLIAVSNHYGGMRDGHYTTFACNKDSGQWHYFDDNSVSPVNENQIESKAAYVLFYQRQDVARRLLSPAGSSGAPASPACSSPPSSEFMDVN | 2 | 1 | 4 | – | –
3 | Q07065 (protein, UniProt Q07065 1-602, looked up, full-length) MPSAKQRGSKGGHGAASPSEKGAHPSGGADDVAKKPPPAPQQPPPPPAPHPQQHPQQHPQNQAHGKGGHRGGGGGGGKSSSSSSASAAAAAAAASSSASCSRRLGRALNFLFYLALVAAAAFSGWCVHHVLEEVQQVRRSHQDFSRQREELGQGLQGVEQKVQSLQATFGTFESILRSSQHKQDLTEKAVKQGESEVSRISEVLQKLQNEILKDLSDGIHVVKDARERDFTSLENTVEERLTELTKSINDNIAIFTEVQKRSQKEINDMKAKVASLEESEGNKQDLKALKEAVKEIQTSAKSREWDMEALRSTLQTMESDIYTEVRELVSLKQEQQAFKEAADTERLALQALTEKLLRSEESVSRLPEEIRRLEEELRQLKSDSHGPKEDGGFRHSEAFEALQQKSQGLDSRLQHVEDGVLSMQVASARQTESLESLLSKSQEHEQRLAALQGRLEGLGSSEADQDGLASTVRSLGETQLVLYGDVEELKRSVGELPSTVESLQKVQEQVHTLLSQDQAQAARLPPQDFLDRLSSLDNLKASVSQVEADLKMLRTAVDSLVAYSVKIETNENNLESAKGLLDDLRNDLDRLFVKVEKIHEKV | 13 | 62 | 152 | 30 | 4
4 | P12814 (protein, UniProt P12814 1-892, looked up, full-length) MDHYDSQQTNDYMQPEEDWDRDLLLDPAWEKQQRKTFTAWCNSHLRKAGTQIENIEEDFRDGLKLMLLLEVISGERLAKPERGKMRVHKISNVNKALDFIASKGVKLVSIGAEEIVDGNVKMTLGMIWTIILRFAIQDISVEETSAKEGLLLWCQRKTAPYKNVNIQNFHISWKDGLGFCALIHRHRPELIDYGKLRKDDPLTNLNTAFDVAEKYLDIPKMLDAEDIVGTARPDEKAIMTYVSSFYHAFSGAQKAETAANRICKVLAVNQENEQLMEDYEKLASDLLEWIRRTIPWLENRVPENTMHAMQQKLEDFRDYRRLHKPPKVQEKCQLEINFNTLQTKLRLSNRPAFMPSEGRMVSDINNAWGCLEQVEKGYEEWLLNEIRRLERLDHLAEKFRQKASIHEAWTDGKEAMLRQKDYETATLSEIKALLKKHEAFESDLAAHQDRVEQIAAIAQELNELDYYDSPSVNARCQKICDQWDNLGALTQKRREALERTEKLLETIDQLYLEYAKRAAPFNNWMEGAMEDLQDTFIVHTIEEIQGLTTAHEQFKATLPDADKERLAILGIHNEVSKIVQTYHVNMAGTNPYTTITPQEINGKWDHVRQLVPRRDQALTEEHARQQHNERLRKQFGAQANVIGPWIQTKMEEIGRISIEMHGTLEDQLSHLRQYEKSIVNYKPKIDQLEGDHQLIQEALIFDNKHTNYTMEHIRVGWEQLLTTIARTINEVENQILTRDAKGISQEQMNEFRASFNHFDRDHSGTLGPEEFKACLISLGYDIGNDPQGEAEFARIMSIVDPNRLGVVTFQAFIDFMSRETADTDTADQVMASFKILAGDKNYITMDELRRELPPDQAEYCIARMAPYTGPDSVPGALDYMSFSTALYGESDL | 34 | 13 | 82 | 4 | –
5 | Q16643 (protein, UniProt Q16643 1-649, looked up, full-length) MAGVSFSGHRLELLAAYEEVIREESAADWALYTYEDGSDDLKLAASGEGGLQELSGHFENQKVMYGFCSVKDSQAALPKYVLINWVGEDVPDARKCACASHVAKVAEFFQGVDVIVNASSVEDIDAGAIGQRLSNGLARLSSPVLHRLRLREDENAEPVGTTYQKTDAAVEMKRINREQFWEQAKKEEELRKEEERKKALDERLRFEQERMEQERQEQEERERRYREREQQIEEHRRKQQTLEAEEAKRRLKEQSIFGDHRDEEEETHMKKSESEVEEAAAIIAQRPDNPREFFKQQERVASASAGSCDVPSPFNHRPGSHLDSHRRMAPTPIPTRSPSDSSTASTPVAEQIERALDEVTSSQPPPLPPPPPPAQETQEPSPILDSEETRAAAPQAWAGPMEEPPQAQAPPRGPGSPAEDLMFMESAEQAVLAAPVEPATADATEIHDAADTIETDTATADTTVANNVPPAATSLIDLWPGNGEGASTLQGEPRAPTPPSGTEVTLAEVPLLDEVAPEPLLPAGEGCATLLNFDELPEPPATFCDPEEVEGESLAAPQTPTLPSALEELEQEQEPEPHLLTNGETTQKEGTQASEGYFSQSQEEEFAQSEELCAKAPPPVFYNKPPEIDITCWDADPVPEEEEGFEGGD | 33 | 13 | 51 | 3 | –
6 | Q6NZI2 (protein, UniProt Q6NZI2 1-390, looked up, full-length) MEDPTLYIVERPLPGYPDAEAPEPSSAGAQAAEEPSGAGSEELIKSDQVNGVLVLSLLDKIIGAVDQIQLTQAQLEERQAEMEGAVQSIQGELSKLGKAHATTSNTVSKLLEKVRKVSVNVKTVRGSLERQAGQIKKLEVNEAELLRRRNFKVMIYQDEVKLPAKLSISKSLKESEALPEKEGEELGEGERPEEDAAALELSSDEAVEVEEVIEESRAERIKRSGLRRVDDFKKAFSKEKMEKTKVRTRENLEKTRLKTKENLEKTRHTLEKRMNKLGTRLVPAERREKLKTSRDKLRKSFTPDHVVYARSKTAVYKVPPFTFHVKKIREGQVEVLKATEMVEVGADDDEGGAERGEAGDLRRGSSPDVHALLEITEESDAVLVDKSDSD | 16 | 3 | 42 | – | –
7 | P02545 (protein, UniProt P02545 1-664, looked up, full-length) METPSQRRATRSGAQASSTPLSPTRITRLQEKEDLQELNDRLAVYIDRVRSLETENAGLRLRITESEEVVSREVSGIKAAYEAELGDARKTLDSVAKERARLQLELSKVREEFKELKARNTKKEGDLIAAQARLKDLEALLNSKEAALSTALSEKRTLEGELHDLRGQVAKLEAALGEAKKQLQDEMLRRVDAENRLQTMKEELDFQKNIYSEELRETKRRHETRLVEIDNGKQREFESRLADALQELRAQHEDQVEQYKKELEKTYSAKLDNARQSAERNSNLVGAAHEELQQSRIRIDSLSAQLSQLQKQLAAKEAKLRDLEDSLARERDTSRRLLAEKEREMAEMRARMQQQLDEYQELLDIKLALDMEIHAYRKLLEGEEERLRLSPSPTSQRSRGRASSHSSQTQGGGSVTKKRKLESTESRSSFSQHARTSGRVAVEEVDEEGKFVRLRNKSNEDQSMGNWQIKRQNGDDPLLTYRFPPKFTLKAGQVVTIWAAGAGATHSPPTDLVWKAQNTWGCGNSLRTALINSTGEEVAMRKLVRSVTVVEDDEDEDGDDLLHHHHGSHCSSSGDPAEYNLRSRTVLCGTCGQPADKASASGSGAQVGGPISSGSSASSVTVTRSYRSVGGSGGGSFGDNLVTRSYLLGNSSPRTQSPQNCSIM | 6 | 3 | 21 | – | –
